From PMC10037368 (2023) come the findings set out here.

The target of the assay is Spike glycoprotein (Wuhan-Hu-1) RBD (Severe acute respiratory syndrome …, UniProt P0DTC2). Description: ELISA.

B1: Sb92 sherpabody (designed binder)
chain: EEYIAVGDFFSTDPADLTFKKGEILLVIERGTSAGDGWWIAKDAKGNEGLVPRTYLEPYS
In turn, B1 returned a Kd of 30 nM. That is a double-digit nanomolar value.
